Numbered stars: 1 amine (or outer) side, 2 acyl side, 3 side chain; on linkers, the order of the positions; unused ones are H or OH. Square brackets hold non-standard residues; d marks the D form. Primed or numbered codes have the meaning given here. Side chains are listed from the residue outwards. Ends that are not written are not given here. * marks the point of attachment. Phe(4-CH2NH2) = NCc1ccc(C[C@H](N)C(=O)O)cc1; C18 diacid = O=C(O)CCCCCCCCCCCCCCCCC(=O)*; αMeW = C[C@](N)(Cc1c[nH]c2ccccc12)C(=O)O; C16 diacid = O=C(O)CCCCCCCCCCCCCCC(=O)*; γGlu = O=C(O)[C@H](CCC(=O)[*:2])N[*:1]; Met(O2) = CS(=O)(=O)CC[C@H](N)C(=O)O; αMeD = C[C@](N)(CC(=O)O)C(=O)O; αMeS = C[C@](N)(CO)C(=O)O; PEG2′ = not defined here; AEEA = NCCOCCOCC(=O)O; Aib = CC(C)(N)C(=O)O
Assays:
[1] = target: human Glucagon receptor (GCGR) (human, UniProt P47871 26-477); test: cell-based or functional assay
Sequence of human Glucagon receptor (GCGR) (P47871 26-477): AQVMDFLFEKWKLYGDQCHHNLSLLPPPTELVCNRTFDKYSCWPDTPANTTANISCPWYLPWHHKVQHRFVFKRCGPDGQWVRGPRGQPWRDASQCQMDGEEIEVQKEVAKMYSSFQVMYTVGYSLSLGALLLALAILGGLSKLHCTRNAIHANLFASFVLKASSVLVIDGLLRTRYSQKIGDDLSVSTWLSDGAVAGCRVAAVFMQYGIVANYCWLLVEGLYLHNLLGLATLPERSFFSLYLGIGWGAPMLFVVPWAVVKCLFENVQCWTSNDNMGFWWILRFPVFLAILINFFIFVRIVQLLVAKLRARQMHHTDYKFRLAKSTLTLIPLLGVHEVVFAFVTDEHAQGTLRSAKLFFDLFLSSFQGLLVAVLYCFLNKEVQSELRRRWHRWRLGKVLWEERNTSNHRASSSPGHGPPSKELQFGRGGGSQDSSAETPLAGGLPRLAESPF

[2] = target: human GLP-1 receptor (GLP1R) (human, UniProt P43220 24-463); test: cell-based or functional assay

| Binder | GCGR EC50 human [1] | GLP1R EC50 human [2] |
| --- | --- | --- |
| H[αMS]QGTFTSDYSKYLD[Aib]RAAQK([PEG2′-PEG2′-γGlu-C16 diacid])FVQWL[Met(O2)][αMD]T-NH2 [TP619] | 50 pM | 380 pM |
| H[Aib]QGTFTSD[Phe(4-CH2NH2)]([AEEA-AEEA-γGlu-C18 diacid])SKYLDARAAQDFVQ[αMeW]L[Met(O2)]DT-NH2 (N-terminus assumed; SMILES CC(C)C[C@H](NC(=O)[C@H](Cc1ccc(O)cc1)NC(=O)[C@H](CCCCN)NC(=O)[C@H](CO)NC(=O)[C@H](Cc1ccc(CNC(=O)COCCOCCNC(=O)COCCOCCNC(=O)CC[C@H](NC(=O)CCCCCCCCCCCCCCCCC(=O)O)C(=O)O)cc1)NC(=O)[C@H](CC(=O)O)NC(=O)[C@H](CO)NC(=O)[C@@H](NC(=O)[C@H](Cc1ccccc1)NC(=O)[C@@H](NC(=O)CNC(=O)[C@H](CCC(N)=O)NC(=O)C(C)(C)NC(=O)[C@@H](N)Cc1c[nH]cn1)[C@@H](C)O)[C@@H](C)O)C(=O)N[C@@H](CC(=O)O)C(=O)N[C@@H](C)C(=O)N[C@@H](CCCNC(=N)N)C(=O)N[C@@H](C)C(=O)N[C@@H](C)C(=O)N[C@@H](CCC(N)=O)C(=O)N[C@@H](CC(=O)O)C(=O)N[C@@H](Cc1ccccc1)C(=O)N[C@H](C(=O)N[C@@H](CCC(N)=O)C(=O)N[C@@](C)(Cc1c[nH]c2ccccc12)C(=O)N[C@@H](CC(C)C)C(=O)N[C@@H](CCS(C)(=O)=O)C(=O)N[C@@H](CC(=O)O)C(=O)N[C@H](C(N)=O)[C@@H](C)O)C(C)C) [TP625] | 1300 pM | 390 pM |
| H[Aib]QGTFTSD[Phe(4-CH2NH2)]([AEEA-AEEA-γGlu-C18 diacid])SKYLDARAAQDFVQWL[Met(O2)][αMeD]T-NH2 (N-terminus assumed; SMILES CC(C)C[C@H](NC(=O)[C@H](Cc1ccc(O)cc1)NC(=O)[C@H](CCCCN)NC(=O)[C@H](CO)NC(=O)[C@H](Cc1ccc(CNC(=O)COCCOCCNC(=O)COCCOCCNC(=O)CC[C@H](NC(=O)CCCCCCCCCCCCCCCCC(=O)O)C(=O)O)cc1)NC(=O)[C@H](CC(=O)O)NC(=O)[C@H](CO)NC(=O)[C@@H](NC(=O)[C@H](Cc1ccccc1)NC(=O)[C@@H](NC(=O)CNC(=O)[C@H](CCC(N)=O)NC(=O)C(C)(C)NC(=O)[C@@H](N)Cc1c[nH]cn1)[C@@H](C)O)[C@@H](C)O)C(=O)N[C@@H](CC(=O)O)C(=O)N[C@@H](C)C(=O)N[C@@H](CCCNC(=N)N)C(=O)N[C@@H](C)C(=O)N[C@@H](C)C(=O)N[C@@H](CCC(N)=O)C(=O)N[C@@H](CC(=O)O)C(=O)N[C@@H](Cc1ccccc1)C(=O)N[C@H](C(=O)N[C@@H](CCC(N)=O)C(=O)N[C@@H](Cc1c[nH]c2ccccc12)C(=O)N[C@@H](CC(C)C)C(=O)N[C@@H](CCS(C)(=O)=O)C(=O)N[C@@](C)(CC(=O)O)C(=O)N[C@H](C(N)=O)[C@@H](C)O)C(C)C) [TP624] | 1000 pM | 890 pM |
| H[αMeS]QGTFTSDYSKYLD[Aib]RAAQK([AEEA-AEEA-γGlu-C18 diacid])FVQWL[Met(O2)][αMeD]T-NH2 (N-terminus assumed; SMILES CC(C)C[C@H](NC(=O)[C@H](Cc1ccc(O)cc1)NC(=O)[C@H](CCCCN)NC(=O)[C@H](CO)NC(=O)[C@H](Cc1ccc(O)cc1)NC(=O)[C@H](CC(=O)O)NC(=O)[C@H](CO)NC(=O)[C@@H](NC(=O)[C@H](Cc1ccccc1)NC(=O)[C@@H](NC(=O)CNC(=O)[C@H](CCC(N)=O)NC(=O)[C@](C)(CO)NC(=O)[C@@H](N)Cc1c[nH]cn1)[C@@H](C)O)[C@@H](C)O)C(=O)N[C@@H](CC(=O)O)C(=O)NC(C)(C)C(=O)N[C@@H](CCCNC(=N)N)C(=O)N[C@@H](C)C(=O)N[C@@H](C)C(=O)N[C@@H](CCC(N)=O)C(=O)N[C@@H](CCCCNC(=O)COCCOCCNC(=O)COCCOCCNC(=O)CC[C@H](NC(=O)CCCCCCCCCCCCCCCCC(=O)O)C(=O)O)C(=O)N[C@@H](Cc1ccccc1)C(=O)N[C@H](C(=O)N[C@@H](CCC(N)=O)C(=O)N[C@@H](Cc1c[nH]c2ccccc12)C(=O)N[C@@H](CC(C)C)C(=O)N[C@@H](CCS(C)(=O)=O)C(=O)N[C@@](C)(CC(=O)O)C(=O)N[C@H](C(N)=O)[C@@H](C)O)C(C)C) [TP621] | 250 pM | 1940 pM |
| H[αMeS]QGTFTSDYSKYLD[Aib]RAAK([AEEA-AEEA-γGlu-C18 diacid])DFVQWL[Met(O2)][αMeD]T-NH2 (N-terminus assumed; SMILES CC(C)C[C@H](NC(=O)[C@H](Cc1ccc(O)cc1)NC(=O)[C@H](CCCCN)NC(=O)[C@H](CO)NC(=O)[C@H](Cc1ccc(O)cc1)NC(=O)[C@H](CC(=O)O)NC(=O)[C@H](CO)NC(=O)[C@@H](NC(=O)[C@H](Cc1ccccc1)NC(=O)[C@@H](NC(=O)CNC(=O)[C@H](CCC(N)=O)NC(=O)[C@](C)(CO)NC(=O)[C@@H](N)Cc1c[nH]cn1)[C@@H](C)O)[C@@H](C)O)C(=O)N[C@@H](CC(=O)O)C(=O)NC(C)(C)C(=O)N[C@@H](CCCNC(=N)N)C(=O)N[C@@H](C)C(=O)N[C@@H](C)C(=O)N[C@@H](CCCCNC(=O)COCCOCCNC(=O)COCCOCCNC(=O)CC[C@H](NC(=O)CCCCCCCCCCCCCCCCC(=O)O)C(=O)O)C(=O)N[C@@H](CC(=O)O)C(=O)N[C@@H](Cc1ccccc1)C(=O)N[C@H](C(=O)N[C@@H](CCC(N)=O)C(=O)N[C@@H](Cc1c[nH]c2ccccc12)C(=O)N[C@@H](CC(C)C)C(=O)N[C@@H](CCS(C)(=O)=O)C(=O)N[C@@](C)(CC(=O)O)C(=O)N[C@H](C(N)=O)[C@@H](C)O)C(C)C) [TP620] | 1260 pM | 8580 pM |
| H[Aib]QGTFTSD[Phe(4-CH2NH2)]([AEEA-γGlu-C16 diacid])SKYLDARAAQDFVQWL[Met(O2)]DT-NH2 (N-terminus assumed; SMILES CC(C)C[C@H](NC(=O)[C@H](Cc1ccc(O)cc1)NC(=O)[C@H](CCCCN)NC(=O)[C@H](CO)NC(=O)[C@H](Cc1ccc(CNC(=O)COCCOCCNC(=O)CC[C@H](NC(=O)CCCCCCCCCCCCCCC(=O)O)C(=O)O)cc1)NC(=O)[C@H](CC(=O)O)NC(=O)[C@H](CO)NC(=O)[C@@H](NC(=O)[C@H](Cc1ccccc1)NC(=O)[C@@H](NC(=O)CNC(=O)[C@H](CCC(N)=O)NC(=O)C(C)(C)NC(=O)[C@@H](N)Cc1c[nH]cn1)[C@@H](C)O)[C@@H](C)O)C(=O)N[C@@H](CC(=O)O)C(=O)N[C@@H](C)C(=O)N[C@@H](CCCNC(=N)N)C(=O)N[C@@H](C)C(=O)N[C@@H](C)C(=O)N[C@@H](CCC(N)=O)C(=O)N[C@@H](CC(=O)O)C(=O)N[C@@H](Cc1ccccc1)C(=O)N[C@H](C(=O)N[C@@H](CCC(N)=O)C(=O)N[C@@H](Cc1c[nH]c2ccccc12)C(=O)N[C@@H](CC(C)C)C(=O)N[C@@H](CCS(C)(=O)=O)C(=O)N[C@@H](CC(=O)O)C(=O)N[C@H](C(N)=O)[C@@H](C)O)C(C)C) [TP622] | 30 pM | 90 pM |
| H[αMeS]QGTFTSDYSKYLD[Aib]RAAK([AEEA-AEEA-γGlu-C16 diacid])DFVQWL[Met(O2)][αMeD]T-NH2 (N-terminus assumed; SMILES CC(C)C[C@H](NC(=O)[C@H](Cc1ccc(O)cc1)NC(=O)[C@H](CCCCN)NC(=O)[C@H](CO)NC(=O)[C@H](Cc1ccc(O)cc1)NC(=O)[C@H](CC(=O)O)NC(=O)[C@H](CO)NC(=O)[C@@H](NC(=O)[C@H](Cc1ccccc1)NC(=O)[C@@H](NC(=O)CNC(=O)[C@H](CCC(N)=O)NC(=O)[C@](C)(CO)NC(=O)[C@@H](N)Cc1c[nH]cn1)[C@@H](C)O)[C@@H](C)O)C(=O)N[C@@H](CC(=O)O)C(=O)NC(C)(C)C(=O)N[C@@H](CCCNC(=N)N)C(=O)N[C@@H](C)C(=O)N[C@@H](C)C(=O)N[C@@H](CCCCNC(=O)COCCOCCNC(=O)COCCOCCNC(=O)CC[C@H](NC(=O)CCCCCCCCCCCCCCC(=O)O)C(=O)O)C(=O)N[C@@H](CC(=O)O)C(=O)N[C@@H](Cc1ccccc1)C(=O)N[C@H](C(=O)N[C@@H](CCC(N)=O)C(=O)N[C@@H](Cc1c[nH]c2ccccc12)C(=O)N[C@@H](CC(C)C)C(=O)N[C@@H](CCS(C)(=O)=O)C(=O)N[C@@](C)(CC(=O)O)C(=O)N[C@H](C(N)=O)[C@@H](C)O)C(C)C) [TP618] | 360 pM | 2480 pM |
| H[Aib]QGTFTSD[Phe(4-CH2NH2)]([AEEA-γGlu-C18 diacid])SKYLDARAAQDFVQWL[Met(O2)]DT-NH2 (N-terminus assumed; SMILES CC(C)C[C@H](NC(=O)[C@H](Cc1ccc(O)cc1)NC(=O)[C@H](CCCCN)NC(=O)[C@H](CO)NC(=O)[C@H](Cc1ccc(CNC(=O)COCCOCCNC(=O)CC[C@H](NC(=O)CCCCCCCCCCCCCCCCC(=O)O)C(=O)O)cc1)NC(=O)[C@H](CC(=O)O)NC(=O)[C@H](CO)NC(=O)[C@@H](NC(=O)[C@H](Cc1ccccc1)NC(=O)[C@@H](NC(=O)CNC(=O)[C@H](CCC(N)=O)NC(=O)C(C)(C)NC(=O)[C@@H](N)Cc1c[nH]cn1)[C@@H](C)O)[C@@H](C)O)C(=O)N[C@@H](CC(=O)O)C(=O)N[C@@H](C)C(=O)N[C@@H](CCCNC(=N)N)C(=O)N[C@@H](C)C(=O)N[C@@H](C)C(=O)N[C@@H](CCC(N)=O)C(=O)N[C@@H](CC(=O)O)C(=O)N[C@@H](Cc1ccccc1)C(=O)N[C@H](C(=O)N[C@@H](CCC(N)=O)C(=O)N[C@@H](Cc1c[nH]c2ccccc12)C(=O)N[C@@H](CC(C)C)C(=O)N[C@@H](CCS(C)(=O)=O)C(=O)N[C@@H](CC(=O)O)C(=O)N[C@H](C(N)=O)[C@@H](C)O)C(C)C) [TP623] | 90 pM | 170 pM |

From patent US20200270325A1 (Merck Sharp & Dohme, published 2020)
